Experimental findings from US20170306005A1 (NASCIENT, published 2017) are described below.

Substitutions are numbered along the chain they refer to. Numbers in names are those of the source.

Assay [1] addresses T1, mouse tenascin-C rCd4-His-FBG (rat; mouse, UniProt P05540 207-392, limits assumed).
T1 construct: domain: domains 3 and 4; C-terminal FBG fusion; biotinylated in the ELISA screen; also called Mu TNC; mouse TNC rCd4-His-FBG; not shown: 6His tag
T1 sequence (chain (part 1 of 2)): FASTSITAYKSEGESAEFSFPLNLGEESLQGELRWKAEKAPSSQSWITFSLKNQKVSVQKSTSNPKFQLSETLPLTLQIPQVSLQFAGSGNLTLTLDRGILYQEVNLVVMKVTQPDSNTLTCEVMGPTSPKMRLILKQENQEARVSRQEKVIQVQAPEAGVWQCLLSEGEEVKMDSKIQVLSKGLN
T1 sequence (chain (part 2 of 2)): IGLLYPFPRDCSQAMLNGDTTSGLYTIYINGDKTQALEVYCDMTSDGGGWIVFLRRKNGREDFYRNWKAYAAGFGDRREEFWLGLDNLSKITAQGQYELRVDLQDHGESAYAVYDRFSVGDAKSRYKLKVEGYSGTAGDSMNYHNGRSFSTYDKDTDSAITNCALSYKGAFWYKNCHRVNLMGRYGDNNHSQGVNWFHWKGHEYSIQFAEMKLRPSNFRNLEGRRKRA
Briefly: SPR, captured Fab, 25 C. As for the experimental part:
(§1) Experiments were performed using a BIAcore T100 instrument with CM5 sensor chip according to the protocol provided with the Human Fab Capture Kit (GE, 28-9583-25). […] After reference signal subtraction, the data was fitted to a global 1:1 fit using the T100 BIAevaluation software (FIGS. 6 a-d).

In assay [2] the target is T2, human tenascin-C rCd4-His-FBG (rat; human, UniProt P05540 207-392, limits assumed).
T2 construct: domain: domains 3 and 4; C-terminal FBG fusion; biotinylated in the ELISA and HTRF screens; also called Hu TNC; human TNC rCd4-His-FBG; not shown: 6His tag
T2 sequence (chain (part 1 of 2)): T1 sequence (chain (part 1 of 2))
T2 sequence (chain (part 2 of 2)): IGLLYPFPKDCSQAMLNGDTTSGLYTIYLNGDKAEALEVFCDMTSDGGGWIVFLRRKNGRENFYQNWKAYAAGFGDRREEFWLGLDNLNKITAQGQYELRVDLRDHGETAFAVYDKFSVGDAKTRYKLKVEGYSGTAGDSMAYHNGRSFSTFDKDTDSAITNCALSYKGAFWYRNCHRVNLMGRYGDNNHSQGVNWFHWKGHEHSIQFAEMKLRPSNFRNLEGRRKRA
Briefly: SPR, captured Fab, 25 C. As for the experimental part: as §1

Assay [3] addresses T1, mouse tenascin-C rCd4-His-FBG. Briefly: SPR, parental antibody.
The target in assay [4] is T3, human tenascin-R rCd4-His-FBG (rat; human, UniProt P05540 207-392, limits assumed).
T3 construct: domain: domains 3 and 4; C-terminal FBG fusion; also called Hu TNR; human TNR rCd4-His-FBG; not shown: 6His tag
T3 sequence (chain (part 1 of 2)): T1 sequence (chain (part 1 of 2))
T3 sequence (chain (part 2 of 2)): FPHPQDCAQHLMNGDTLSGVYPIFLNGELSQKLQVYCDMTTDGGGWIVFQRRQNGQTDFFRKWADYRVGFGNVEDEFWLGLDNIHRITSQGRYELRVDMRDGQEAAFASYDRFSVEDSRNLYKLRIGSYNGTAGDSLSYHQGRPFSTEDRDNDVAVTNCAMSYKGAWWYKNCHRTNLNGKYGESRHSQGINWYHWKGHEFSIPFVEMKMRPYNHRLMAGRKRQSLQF
Briefly: SPR steady state, captured Fab, 25 C. The protocol: as §1

For assay [5], the target named is T4, Human FGB-rCd4.
T4 construct: Not the same construct as m1, which has the FBG at the C terminus; also called human TNC FBG-rCD4; human tenascin-C FBG-rCd4-His (FBG at the N terminus of the rat Cd4 tag); not shown: rat Cd4 (domains 3 and 4) tag, the C-terminal His6 tag and the vector-derived junction residues of pBIOCAM4
T4 chain: T2 sequence (chain (part 2 of 2))
Briefly: ELISA (DELFIA), antigen coated on the well, purified Fab at 50 nM, detected with anti-kappa or anti-lambda mAb and Europium-conjugated anti-mouse mAb.

For assay [6], the target named is T5, human Fc-His-FBG (human, UniProt P24821 1974-2201).
T5 sequence: T2 sequence (chain (part 2 of 2))
Briefly: cell-based or functional assay.

For assay [7], the target named is T1, mouse tenascin-C rCd4-His-FBG. Briefly: SPR off-rate screen, captured IgG4 supernatant, 25 C. As for the experimental part:
(§2) The 31 scFv of interest were sub-cloned into a human IgG4 expression vector for generation of antibodies as human IgG4 with a hinge-stabilising mutation (S241P; Angal et al, 1993). […] Briefly, surface plasmon resonance (SPR) experiments were performed using a BIAcore T100 instrument and followed the protocol according to the Human antibody capture kit protocol (GE, BR-1008-39). For off-rate screening, 10,000 response units (RU) of anti-human Fc IgG (GE, BR-1008-39) was immobilised on flow-cells (FC1 and FC2) of a Series 5 CM5 dextran sensor chip (BR-1005-30) using EDC/NHS cross-linking chemistry according to the amine coupling kit protocol (GE, BR-1000-50). Culture supernatants containing expressed IgG4 were diluted 1:2 with 2×PBS-T and injected into FC2 (flowrate 5 μl/min, 60 s contact time) to enable antibody capture at 25° C. […] A fixed concentration of antigen (15 nM of human and mouse TNC rCd4-His-FBG and 100 nM of human TNR rCd4-His-FBG) was injected with a flow-path via FC 1 (reference flow cell) and FC 2 (antibody capture flow cell), with a flow rate of 30 μl/min, and the association and dissociation phases measured over 1 and 5 min time periods, respectively. Regeneration of the binding surface employed 3M MgCl₂ with 30 s contact time. Off rates were determined by reference cell subtraction and fitting the sensogram experimental data assuming a 1:1 interaction using BIAevaluation software (GE, BR-1005-97).

In assay [8] the target is T2, human tenascin-C rCd4-His-FBG. The description is as above. The protocol: as §2
In assay [9] the target is T6, rat tenascin-C rCd4-His-FBG (rat, UniProt P05540 207-392, limits assumed).
T6 construct: domain: domains 3 and 4; C-terminal FBG fusion; also called Rat TNC; rat TNC rCD4-His-FBG; not shown: 6His tag
T6 sequence (chain (part 1 of 2)): T1 sequence (chain (part 1 of 2))
T6 sequence (chain (part 2 of 2)): T1 sequence (chain (part 2 of 2)) with A72T
Briefly: SPR, captured purified IgG4, 37 C. The protocol:
(§3) Detailed kinetic parameters were evaluated for the 9 prioritised IgG4 antibodies. Binding characteristics were determined for interaction with human, rat and dog TNC rCD4-His-FBG, and human TNR rCD4-His-FBG. Kinetic assays followed essentially the same protocols as for the off-rate determinations described above, with some modifications as follows. […] Purified anti-FBG IgG4 was diluted to a concentration of 3.5 nM in PBS, pH 7.4, 0.05% Tween-20 and injected into FC2 at a flow rate of 10 μl/min, 60 s contact time. […] Antigens were prepared by doubling dilution in PBS, pH 7.4, 0.05% Tween-20 (highest concentration 100 nM except mouse rCD4-His-FBG which was 7 nM). Assays were performed at 37° C. (30 μl/min, 120 s contact time; mouse rCD4-His-FBGFBG 10 μl/min, 60 s contact time), with both the flow cell and injection chamber equilibrated to this temperature. As before, kinetic parameters were determined by reference cell subtraction and fitting the sensogram experimental data assuming a 1:1 interaction using BIAevaluation software (GE, BR-1005-97).

Assay [10] addresses T1, mouse tenascin-C rCd4-His-FBG. Briefly: SPR, captured purified IgG4, 37 C. As for the experimental part:
as §3

The target in assay [11] is T2, human tenascin-C rCd4-His-FBG. Briefly: SPR, captured purified IgG4, 37 C. As for the experimental part:
as §3

Assay [12] deals with T7, dog tenascin-C rCD4-His-FBG (rat; dog, UniProt P05540 207-392, limits assumed).
T7 construct: domain: domains 3 and 4; C-terminal FBG fusion; also called Dog TNC; not shown: 6His tag
T7 sequence (chain (part 1 of 2)): T1 sequence (chain (part 1 of 2))
T7 sequence (chain (part 2 of 2)): T1 sequence (chain (part 2 of 2)) with I29L, T34A, S89H, Q104R, E108K, S109T, S124T, N142A, Y152F
Briefly: SPR, captured purified IgG4, 37 C. The protocol: as §3

The target of assay [13] is T3, human tenascin-R rCd4-His-FBG. Briefly: SPR off-rate screen, captured IgG4 supernatant, 25 C. As for the experimental part: as §2
The target is the same in assay [14]. Briefly: SPR, captured purified IgG4, 37 C. The protocol:
as §3

B1: Fab F3 (Fab, V domains shown)
VH: EVQLLESGGGLVQPGGSLRLSCAASGFTFSSYGMHWVRQAPGKGLEWVAVISYDGSNKYYADSVKGRFTISRGNSKNTLYLQMNSLKAEDTAVYYCAREGYDQLFSAESNAFDIWGQGTLVTVSS
VL: NFMLAQPHSVSESPGKTVTISCTRSSGSIASYFVQWFQQRPGSAPTAVIYEDNQRPSGVPDRFSGSIDSSSNSASLTISGLKTEDEADYYCQSYDSSNWVFGGGTKVTVLG
notes: monomeric Fab
In assay [1], B1 returned a dissociation constant (Kd) of 70.6 nM, a dissociation rate constant (koff) of 0.00642 s⁻¹ and an on-rate (kon) of 91000 M⁻¹ s⁻¹. Further, in assay [2], binding was put at a Kd of 27.4 nM, the koff stood at 0.00346 s⁻¹ and the kon stood at 126000 M⁻¹ s⁻¹. Besides, the “fold difference in affinity between human and mouse rCd4-his-FBG” value in assay [3] came to 2.6 fold. The Kd in [4] is 1810 nM. Besides, in assay [5], the binding result was “binds”. Further, in assay [6], the “IC50, inhibition of Fc-His-HuFBG-evoked IL-8 release, THP1-Blue cells” value is 13.8 nM and the “IC50, inhibition of Fc-His-HuFBG-evoked alkaline phosphatase, THP1-Blue cells” value stood at 8.4 nM.

B2: 165_13_B1 human IgG4 (antibody, V domains shown)
VH: QVQLVESGGGLVQPGRSLRLSCAASGFTFDDYAMHWVRQAPGKGLEWVSGISGSGGSTYYADSVKGRFTISRDNAKNSLYLQMNSLRAEDTALYYCAKVMSSMEDAFDIWGQGTMVTVSS
VL: DIQMTQSPASLPTPVGDRVTITCRASQYIQGFLNWYQQKPGKAPKLLIYDASNLETGVPSRFSGSGSGTDFTLTISSLQPEDFATYYCQQSYSTPQTFGQGTKVDIKR
notes: human IgG4 with hinge S241P
Consider B2, for which the koff came to 1.7e-06 s⁻¹ in assay [7]; 1.5e-06 s⁻¹ in assay [8]; 0.00684 s⁻¹ in [9]; 0.000706 s⁻¹ in assay [10]; 0.00188 s⁻¹ in assay [11]; 0.0187 s⁻¹ in assay [12]. Also, the equilibrium dissociation constant (Kd) in assay [9] turned out to be 2.2 nM; in [10] it was 0.96 nM; in assay [11], 0.26 nM; in assay [12], 2.85 nM. Moreover, the kon came to 3.11e+06 M⁻¹ s⁻¹ in [9], 733000 M⁻¹ s⁻¹ in assay [10], 7.27e+06 M⁻¹ s⁻¹ in assay [11] and 6.55e+06 M⁻¹ s⁻¹ in [12].

B3: 160_01_A4 human IgG4 (antibody, V domains shown)
VH: EVRLVQSGAEVKKPGASVKVSCKVSGYTLTELSMHWVRQAPGKGLEWMGGFDPEDGETIYAQKFQGRVTMTEDTSTDTAYMELSSLRSEDTAVYYCATAQKETLGNAIWGQGTLVTVSS
VL: B2 VL with P14S, K45R, D50A, N53T, E55Q, T56D, S67Y, Q96W, D105E
notes: human IgG4 with hinge S241P; also called Antibody 160 01 A4 (derived from 2A5)
For B3, the koff stood at 5.9e-06 s⁻¹ in assay [7]; 6.7e-06 s⁻¹ in assay [8]; 0.011 s⁻¹ in [13]; 0.00189 s⁻¹ in assay [9]; 0.000146 s⁻¹ in assay [10]; 0.0005 s⁻¹ in assay [11]. Also, the koff worked out at 0.00399 s⁻¹ in assay [14] and 0.00018 s⁻¹ in assay [12]. For the same molecule, the Kd in assay [9] is 1.49 nM; in assay [10], 1.23 nM; in assay [11], 0.21 nM; in assay [14], 15.2 nM; in assay [12], 0.094 nM. Also, the on-rate constant (kon) in assay [9] came to 1.27e+06 M⁻¹ s⁻¹; in [10] it was 118000 M⁻¹ s⁻¹; in assay [11], 2.35e+06 M⁻¹ s⁻¹; in assay [14] it was 260000 M⁻¹ s⁻¹; in [12] it was 1.9e+06 M⁻¹ s⁻¹. Also, the “fold lower affinity than for human TNC FBG” value in assay [14] was more than 70 fold.
